Experimental data from publication PMC3434177, “Agnathan VIP, PACAP and Their Receptors: Ancestral Origins of Today's Highly Diversified Forms” (PLoS ONE, 2012).

Tests used:
hfVPACa = test: cAMP accumulation (LANCE cAMP assay) in COS-7 cells transiently transfected with hfVPACa; format: cell-based, inshore hagfish (Eptatretus burgeri); conditions: 100 nM peptide, 30 min, at least 4 experiments in duplicates
Procedure: To investigate the functional properties of the proteins encoded by the agnathan VPAC receptor cDNAs, various vertebrate secretin superfamily peptides at a 100 nM concentration were employed to determine their abilities to stimulate cAMP production in transiently transfected COS-7 cells with hfVPACa or hfVPACb. As jlpVPAC was indicated to be orthologous to hfVPACa by phylogenetic analysis, only the hfVPAC receptors were tested (Figure 4). […] The hfVPACa was further studied using graded concentrations of VIP/PACAP peptides from various vertebrates including sea lamprey (Figure 4C and 4D).
Figure 4 Functional characterization of hfVPACa and hfVPACb. Intracellular cAMP accumulation in response to 100 nM vertebrate superfamily peptides on COS-7 cells transiently transfected with (A) hfVPACa and (B) hfVPACb. Peptide species: slp, sea lamprey; gf, goldfish; h, human; o, ovine; zf, zebrafish; x, Xenopus; ct, catfish and cp, carp. Data represent the mean ± S.E.M. of at least 4 experiments performed in duplicates, p<0.01 is denoted by “*”. […] Data are expressed as the mean ± S.E.M. of at least 6 experiments performed in duplicates. […] Data are expressed as the mean ± S.E.M. of at least 4 experiments. RFU, relative fluorescence units. (G) Shown are representative of confocal fluorescence images of CHO-K1 cells expressing (i) hfVPACa-pEYFP, (ii) hfVPACb-pEYFP and (iii) pEYFP-N1.
African green monkey kidney (COS-7) and Chinese hamster ovary (CHO-K1) cells (ATCC, Manassas, VA) were cultured in 10% FBS/100 U/ml Penicillin/[…] Streptomycin supplemented DMEM and MEM respectively in a 5% (v/v) CO2 humidified chamber at 37°C and passaged twice per week using Trypsin-EDTA (TE) (Invitrogen) on Nunc^TM Surface (Nunc, Denmark) tissue culture flasks. […] For cAMP assays, COS-7 cells were stimulated for 30 mins with either fixed ([…]) or varying (10^−6 to 10^−12 M) concentrations before taking measurements using the LANCE cAMP assay kit (Perkin-Elmer, Waltham, MA) in the Victor x4 multilabel reader (Perkin-Elmer) according to the manufacturer's protocol. […]

[1] = target: inshore hagfish (Eptatretus burgeri) VPAC receptor a (inshore hagfish (Eptatretus burgeri))
[2] = target: inshore hagfish (Eptatretus burgeri) VPAC receptor a (inshore hagfish (Eptatretus burgeri)); remark: listed apart in the source
[3] = target: inshore hagfish (Eptatretus burgeri) VPAC receptor b (inshore hagfish (Eptatretus burgeri))

| Substance | ability to stimulate cAMP production at a fixed peptide concentration (hfVPACa) | intracellular cAMP accumulation (LANCE cAMP assay) in COS-7 cells transiently expressing hfVPACa, graded peptide concentrations 10^-6 to 10^-12 M, EC50 [1] [nM] | further results |
| --- | --- | --- | --- |
| GLP-1 | weakly or unable to do so | – | – |
| GLP-2 | weakly or unable to do so | – | – |
| glucagon: Glucagon (goldfish), synthetic peptide (HSEGTFSNDYSKYLETRRAQDFVEWLMNS; Glucagon; UniProt P79695 50-78, looked up) | weakly or unable to do so | – | – |
| human VIP (peptide) | – | 1.74 | – |
| ovine PACAP-27 (peptide) | – | 0.895 | – |
| sea lamprey PACAP-27 (peptide) | – | 5.92 | intracellular calcium elevation (Fluo-4 calcium assay) in CHO-K1 cells transiently expressing hfVPACa, graded peptide concentrations 10^-6 to 10^-12 M, EC50 [2]: 1.39 nM; intracellular calcium elevation (Fluo-4 calcium assay) in CHO-K1 cells transiently expressing hfVPACb, graded peptide concentrations 10^-6 to 10^-12 M, EC50 [3]: 27.8 nM |
